Measured values as given in the DeepSol protein solubility set.

Test: soluble on expression in E. coli; label from the status in PepcDB or PDB records

Sequence | soluble on expression in E. coli
MKYAVLIGDGMADYPIEELGSRTILQAARTPAMDSIAARGKTGLAKTVPEGFPPGSDVANMSIFGYDPAIYYSGRAPLEAASMGVALAADDVAFRCNLITIENGKIKDYSAGHISSDEAEILIDTLDSELRTEKVRFYPGISYRHLIVAGNDLGAETECTPPHDITGERKDDYLPRGKDGEFFSGLIEASTVVLELHPVNLKRVQEGKNPANSIWVWGQGYAPKFKTFQELYGKSGAIISAVDLLKGIGIYAGLDVIEVPGATGYLDTNYEGKASAAIEALKTRDLVFVHVEAPDEAGHEGSLEKKMKAIEDFDSRIVSPILKHAEASDETFTILVLPDHPTPISVKTHTRDPIPFAIYRTDAADPDGVEYFDEESVKNGSMGLVKASDLIGMLVKVLEHHHHHH | not soluble
MGSDKIHHHHHHMKETDNLLRENSHDRDISEIVATITALDHPSPSLLRFTAFVPGSANNPVWAEANVAIRLYLSEEFDDATRVYTVRSFDAATESIVVDVVQHHHESPMMRWSDTVKINDTLVLTGPRPHFVIPEGEQAALFLDDTAIPALAAILDQWPTDLRGKGWVVTDDPAAFDELPSIDGLELNLLAPGSDPTVQPLAQQAYDLENPETYVVWAAGERDEIKSIRRHFRKQVGLEKDAVAVFGYWKYNTTNTQIDAVRKENYMKMLSEGLQLENFDDLSLEI | not soluble
MFIEVEKFVEARTNSIAQLLKAIDNDALVSGEVTKGPRTAAQRLPRHMRRRAMAYDIRRFPRTMREFAAAHLISKHAKKCPSRFARRKSANSRTKFGRSTSTKGIWLSTHVWHAKRFRMIQKWGFKLADRSFQRGFRAVLRDSNKNCVIRDRSYYTCVTIQCTDAYSKISQFSQKGCRGQSSRDEEEECHQLYMPGKYPFGYIGPARFQRLSGDKVHIWIHPSSKLQFMKALLEYYNLEKQENTEEDLYKNSEIKVSIDAENICRFHLSGPKCLSKLRDSIRFVNDEKFSSEHNYFLSVSDSVFQSSRDGEVINLLIEDPRTTWDRKTVLKHKKVNKEADNERIRVSKFWNKEFREMAIEKRMADSEFHKQNSSKINGVISTEAKVPIILIIRNEGLKALDGADILIPEPFAKDFWVSLQRRGVRASGLRDEYAAHLESKALYYPLDDVGSEAGRESELAMKKELIEKYLGKPHNRRCKHWSAVSVKYPFEFKWDELSQDWNLSNKPRSEAFVCRDLQKLRIIEEAMKKGSGLEEFQEPGMLIPVKLQFFGRGRPKKYGMVCLPTDDDLISIRKNRNREIIQTPPEASSQDSDIVEAMEIEEITVKKNQGFMSLEAAASEKPINLKLLFEETTKLDDKTTKRKRVNRKKRESKKRRKIEQEKRKEEAEVEEVQKLATKYRFSANREIIGRLVAGEQSVLAGHGVGIGYICANTLSLIASNYHKSKTVVMVRNSTSKYYHPAYVTILKNATKI | not soluble
MSLTETTDLYRMSSSLRVVALAETLQRARAFASRLGIIRVTDTTRLDCIGIPVFASIRPTALPGSLCVNAGKGLRPEEARVGAYMEAIEFAMAEYGRSAVDYVMATPRDVLDGRSRPEAILDFCPVFGAQITLDDPMPCVEAEELLSSTRCLVPAELVYVPAPAVEGVQRHFGSSSNGLCSGNSVWEASVHGLAEVIERDIQSFCFLHDTSVLVDIASLPPQPAALARQIGEAGFTLRLRYVENIFELPYFAAYVMEPDPVDAVYICGGFGCHPFKEIAAVRAICEAVQGRLSFIHGGRDDLIERHRLLAQMNGEQELAFSRKLAAKVSRPEGMIGFEAIGDRSGEVCDLSSAWEVLVAAIRKVGIAHVCRVVFTQPHDPVQVLKLIVPRLEMFDRSTRRIGPRLRDHARFHEGHHHHHH | not soluble
MQPMTARFDLFVVGSGFFGLTIAERVATQLDKRVLVLERRPHIGGNAYSEAEPQTGIEVHKYGAHLFHTSNKRVWDYVRQFTDFTDYRHRVFAMHNGQAYQFPMGLGLVSQFFGKYFTPEQARQLIAEQAAEIDTADAQNLEEKAISLIGRPLYEAFVKGYTAKQWQTDPKELPAANITRLPVRYTFDNRYFSDTYEGLPTDGYTAWLQNMAADHRIEVRLNTDWFDVRGQLRPGSPAAPVVYTGPLDRYFDYAEGRLGWRTLDFEVEVLPIGDFQGTAVMNYNDLDVPYTRIHEFRHFHPERDYPTDKTVIMREYSRFAEDDDEPYYPINTEADRALLATYRARAKSETASSKVLFGGRLGTYQYLDMHMAIASALNMYDNVLAPHLRDGVPLLQDGA | soluble
TKDFTWDLSYNITWNHNEITKLTGGDDSDYYVEAGDKISRGNNTKVQAHKVGYAANSFYVYQQVYDENGKPIENMFVDRNGNGTIDSGDKYIYKKPAGDVLMGLTSKMQYKNFDFSFSLRASLNNYVYYDFLSNKANVSTSGLFSNNAYSNTSAEAVALGLSGQGDYMSDYFIHNASFLRCDNITLGYSFQNLWKTQTYKGVGGRVYATVQNPFIISKYKGLDPEVKSGIDANPYPRAMTFLLGLSLQF | not soluble
MQVPLNSADIDYAQFKDANGQEVLVIADGGKLKAFDGTKVYEIVPAPNESGYPANDLANINNKGLKGCVVHNTRVVIWDGSDTIWHSKIGYYDYFGQTDYQRFVRENDYVQTCVTFAGALLVFMRRHIGVLFGHDVEDWSQGFLDTQNGCINPKTVQTVTHPDGRQEVFYLSDNGVHAVYTIDTIEMDVSNRYSTRSVTEGLIDWKALGVTKDEWKRATAYFYDGRYWLIYPKGSEWRGLVYDTRLQAWFPINNVKANSFYHDEDYFYFAGDDGHLKVFDDTLYSDWNDKNKTSGTPINFYWYSKLLTPKLTGYDHFWDVLMIEAKQFPQKSALDVEVNTYLGRFTQEKAVKTASLVWGVTEWGEAQWQNPFLTEAVNNAKRLPTFLKGQYAQIKLSNNRDEPVEIYSLKYEVRLME | not soluble
MGSDKIHHHHHHMAISRLLVEKFRNLTAVDLDFDPCFNFLIGNNGSGKTSLLEAIFYLGHGRSFKSAVTNRIISYDEPHFTLFGQIQESQHQWSIGLQKLRQGNTLVKINGEDGNKISDLAHLLPMQLITPEGLTLLNGGPSYRRAFLDWGLFHHQTSFYSAWSNLNRLLKQRNAALAQNQPYSAIKIWDVELAKLAHQVSEWRAEYAEALSPEIEQTCQLFLPELEINVSFHQGWEKNADYYEILQQNFERDRALNYTFSGPQKADFRFKAQGLPVEDVLSRGQLKLLMCALRLAQGEHLMKEKQRHCIFLIDDFASELDQYKRALLAERLQQSGSQVFVTAITQRQLKEMQVENKKMFSVHNGIINALN | not soluble
MQSQWCARQQDMIAVYGALAEQCDYALHLGLTEAGMGSKGIVASTAALAVLLFKGIGDTIRVSLTPEPGGDRAREVIVAQEILQTMGLRAFVPLVAACPGCGRTTSTYFQELAESIQIYVREQMVIWREQYEGVENMSLAVMGCVVNGPGESKHADIGISLPGSGETPVAPVFVDGQKTVTLKGDNIAGEFRMIVDEYVRTKYRKKAANALEHHHHHH | not soluble
MADKSSRSLILYGDGLARFVDPSNTNIHSLASVATCGFLSLPNAPPETENERIVREFSHLLDASEAYSIASGLKPKGNGNDISTLAERFMGLKAALVTDSSTLTSFGKLIGLDVLQLSEICQESDSFPSDATSSKLLKLLGFEGGKCLDVNLYDLVFVHFGVDEYNNGNNMGILDSLIGSIMGMAQPGSEILSRLHLSVVLSYGSVTDKDVSVFPIKTPQEDINPAFIGLVPRQSYTMRGEKTRDDVRHYCPMLVAQWQHGVTRKDLVDTLSFEALKKLCGNLVIPADRFIHEVAFKLWKAPKYGA | soluble
MSNFISPVYEIKSIPIEKISPNDYNPNSVAPPEMKLLYDSIKSDGYTMPIVCYYDKEEDRYSIVDGFHRYRIMLDYSDIYERESGRLPVSVIDKSLDYRMASTIRHNRARGSHD | not soluble
MNQAIQFPDREEWDENKKCVCFPALVNGMQLTCAISGESLAYRFTGDTPEQWLASFRQHRWDLEEEAENLIQEQSEDDQGWVWLP | not soluble
MGSDKIHHHHHHMDIREKKTPPTLAPGQTSNPATSLPPRTVEGLRDLVVSIGRDQAEVKLGAKALTVLAHLVERPEEVAVRTITDLANSLDVNASTLTRLATRLGFEGFAEFQGVFRNSMAQRHRHFYSQQAERLVGADNTGMPGGVSPEVGAVVQLAHESIQNVERFVARLSAEELRGAAELLAEAPRVRVHGLRQFSALASFLCYGLSMIRSDVGLLDAHGLGVAEGLAQLQRGDVVVVMSVAPYTRSVAEAAAAAAESGLTVIAITDTSASPLAAAARHAFFIPHESSFFSNSMGAYLIFCEGLLNLAATKLGKRSLRALARREQMIAALDIETE | not soluble
